Measured values from the supplement of paper PMC12764529.
± gives the half width of the 95% confidence interval.

What was measured:
[1] = folding stability dG unfold from trypsin proteolysis; higher = more stable
How it was run: (§1)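 Designed mini-proteins (under 80 residues, no cysteine) in a PA-tagged cDNA display construct were digested with trypsin and chymotrypsin. Each protease was used at 11 concentrations (threefold dilutions) plus a no-protease condition, followed by sequencing. K50 was inferred by Bayesian fitting of sequencing counts, and unfolding free energy was derived against a sequence-predicted unfolded-state K50 and a shared folded-state K50, per protease or combined. Only designs with AlphaFold2 dimer inter-PAE above 15 were kept.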

[2] = folding stability dG unfold from chymotrypsin proteolysis; higher = more stable
How it was run: as §1

[3] = folding stability dG unfold (combined trypsin and chymotrypsin); higher = more stable
How it was run: as §1

Sequence	folding stability dG unfold [1]	folding stability dG unfold [2]	folding stability dG unfold [3]
SAGGSAGGSASTITITTPSGEKVKVTLTSLPTPTTLATITVTSTGKTYTIVIAPDGTITLASAGGSAGGSAG [r3_15_JUSTAS]	3.4 ± 0.067 kcal/mol	3.66 ± 0.026 kcal/mol	3.54 ± 0.075 kcal/mol
SAGGSAGGSASVVADENKIVVTFPNGKVVELDLSDPKKAKEKLLALKPLDIPPITLELVPPASAGGSAGGSA [r18_68_JUSTAS]	-0.139 ± 0.071 kcal/mol	0.842 ± 0.041 kcal/mol	0.572 ± 0.12 kcal/mol
SAGGSAGGSATATVTPHEGAWTVTVTGPDSTETFTFEADEETVREFVELLKAPDVDIDPVPGSAGGSAGGSA [r18_103_TrMRF]	1.79 ± 0.07 kcal/mol	1.12 ± 0.096 kcal/mol	1.46 ± 0.086 kcal/mol
SAGGSAGGSATIWIPVSQIEEFLKQMPPDRIKEVKITYDPEDGWIPVKIPGGREIMIWVPKSAGGSAGGSAG [r3_291_TrROS]	1.15 ± 0.029 kcal/mol	0.83 ± 0.054 kcal/mol	1.06 ± 0.076 kcal/mol
SAGGSAGGSATLTLELEIEVDGVRFRVRAELRLDEDGRLHLRVEIEVEPLPPPPPLVAEGEELSAGGSAGGS [r20_30_TrROS_Hall]	2.88 ± 0.14 kcal/mol	4.33 ± 0.23 kcal/mol	4.05 ± 0.3 kcal/mol
SAGGSAGGSATTTTAPDGSPVTVYPETGVARVYDPATGLWTRLTTRPDGVVEETPLPPGAPLESAGGSAGGS [r12_997_JUSTAS]	-0.687 ± 0.23 kcal/mol	0.6 ± 0.079 kcal/mol	0.307 ± 0.068 kcal/mol
SAGGSAGGSATVTVERVGNRLLLSFPDGSYYVAELPGEAEVDLASGKITLPANSRVEPVPLERSAGGSAGGS [r20_158_TrMRF]	0.0598 ± 0.02 kcal/mol	1 ± 0.015 kcal/mol	0.743 ± 0.029 kcal/mol
SAGGSAGGSAVITLKPGETITITATITNADGSTVTITEVVRLPDGRLVVRVTNADGETYEFVLSAGGSAGGS [r12_31_TrROS_Hall]	3.54 ± 0.16 kcal/mol	3.3 ± 0.12 kcal/mol	3.44 ± 0.089 kcal/mol
SAGGSAGGSAVKIKIEQLGPGYFHITIEQEMMYPDGKSRKMTMTMMFKVNAPPNDPALRELLSAGGSAGGSA [r18_215_TrROS]	2.69 ± 0.059 kcal/mol	2.98 ± 0.088 kcal/mol	2.97 ± 0.13 kcal/mol
SAGGSAGGSAVPLTVLEEEKGEGTVVVITRGPDGKLIVTTYTKDPNSEKWTEKRTVLAPEELLSAGGSAGGS [r20_70_JUSTAS]	1.73 ± 0.022 kcal/mol	2.08 ± 0.067 kcal/mol	1.98 ± 0.054 kcal/mol
SAGGSAGGSAVTVDPSSNVVTTTDPATGTSTVTTTPPLPNGTPVLTSTTTTDAAGTPTTTTVTSAGGSAGGS [r12_952_JUSTAS]	2.63 ± 0.12 kcal/mol	1.38 ± 0.049 kcal/mol	2.04 ± 0.059 kcal/mol
SAGGSAGGSAVVSVSPDGYLRLAYYPETGELRELPPDVSVEEFLEAFPDVVVLAAPVAPTPESAGGSAGGSA [r18_53_TrMRF]	0.961 ± 0.016 kcal/mol	1.65 ± 0.029 kcal/mol	1.41 ± 0.048 kcal/mol
SAGGSAGGSDDDDAKKAMEQMKPPPIPIKIQVKIEYDPSLGWLKVEIHFFGFGLRITGTIPIDSAGGSAGGS [r20_230_TrROS]	3.33 ± 0.16 kcal/mol	4.56 ± 0.31 kcal/mol	4.08 ± 0.48 kcal/mol
SAGGSAGGSDDTAEFEGPVNVTLTLDGKPVNINAWVTRLPPGWFRIVLPDGVIELPGGNLRVGSAGGSAGGS [r12_790_TrMRF]	0.84 ± 0.039 kcal/mol	1.31 ± 0.069 kcal/mol	1.16 ± 0.051 kcal/mol
SAGGSAGGSDFPVKILEVEFHPNGSITIVIQAPDGWYIKATFHVPPNGNVKMSIELIPDPDAISAGGSAGGS [r20_23_TrROS]	3.36 ± 0.17 kcal/mol	4 ± 0.15 kcal/mol	3.85 ± 0.19 kcal/mol
SAGGSAGGSDKIKELAKKLKIVKVEKKKDGKYILLVKDEKTGKLYEIEVDLKTNKVTIKELKPSAGGSAGGS [r12_944_TrROS_Hall]	2.81 ± 0.26 kcal/mol	4.31 ± 0.13 kcal/mol	3.82 ± 0.39 kcal/mol
SAGGSAGGSDKYVVVIRVVNKETKKVTTLVFEGLKTPEELKAAVEALLPPGVVKVEIRVVKLPSAGGSAGGS [r20_29_TrROS_Hall]	2.89 ± 0.18 kcal/mol	3.28 ± 0.12 kcal/mol	3.18 ± 0.15 kcal/mol
SAGGSAGGSDLPIKIKMEPIPPGMPPGQVYRMEIEIPNGWVIRYSFYFTGGKLEFEPMEIKPVSAGGSAGGS [r12_1049_TrROS]	2.22 ± 0.19 kcal/mol	3.58 ± 0.08 kcal/mol	3.13 ± 0.28 kcal/mol

Sequence	folding stability dG unfold [1]	folding stability dG unfold [2]	folding stability dG unfold [3]
SAGGSAGGSDPEFELVRVEVFPFPTATLVRAVARFPPTDEYVEVELVHFPVPDRVLLRVRLLPSAGGSAGGS [r12_14_TrMRF]	3.07 ± 0.064 kcal/mol	3.93 ± 0.071 kcal/mol	3.58 ± 0.097 kcal/mol
SAGGSAGGSDPSATISFSFPLPDGSTININITITDEGSGPRIEIDITVTDANNNTAPAKFTIDSAGGSAGGS [r12_33_TrMRF]	1.58 ± 0.11 kcal/mol	1.4 ± 0.14 kcal/mol	1.65 ± 0.11 kcal/mol
SAGGSAGGSDPTAPVITTVPFPSGAVLTITTYPDSVTITYPSPGTTYTVPASAPIPITYQPALSAGGSAGGS [r12_227_JUSTAS]	0.674 ± 0.015 kcal/mol	0.0869 ± 0.12 kcal/mol	0.488 ± 0.067 kcal/mol
SAGGSAGGSDPTPVVVEFPFSSEEEAEKKAKEAAEKLKAEGVDIKEVKIEYDPEKGTVTLTLGSAGGSAGGS [r20_155_JUSTAS]	1.36 ± 0.043 kcal/mol	1.07 ± 0.062 kcal/mol	1.21 ± 0.11 kcal/mol
SAGGSAGGSDVEDIIKKLKIPPGYRMRFPDGKSHKFNNLDDIRNLAEMGMPPDNIDKIQIQPYSAGGSAGGS [r12_430_TrROS]	-0.152 ± 0.22 kcal/mol	0.09 ± 0.28 kcal/mol	0.0517 ± 0.15 kcal/mol
SAGGSAGGSEDKYIIRVEVLLPNKKRTYVLEEPEKGIEAFKKRLEKEYPDEPIVEVRIEVLPASAGGSAGGS [r12_429_TrMRF]	0.874 ± 0.032 kcal/mol	1.37 ± 0.11 kcal/mol	1.19 ± 0.1 kcal/mol
SAGGSAGGSEEKKIKIKIKIERDPENPNTYRITIEDEETGERYELEITVPPPKPKVFFFPKKKSAGGSAGGS [r12_985_TrROS_Hall]	2.24 ± 0.023 kcal/mol	2.19 ± 0.12 kcal/mol	2.18 ± 0.17 kcal/mol
SAGGSAGGSEKIIEELKKKFPGLKIDKIEITVKKKKITIELKPPPKVYLTKEELEKKGYKIEKSAGGSAGGS [r12_3_TrROS_Hall]	1.33 ± 0.041 kcal/mol	0.449 ± 0.33 kcal/mol	0.87 ± 0.22 kcal/mol
SAGGSAGGSEKKPPEVTVVIKLPKGTSLEELLAALPPGAKAEIVEVVKVDEEKNEVYVKIRLTSAGGSAGGS [r12_469_TrROS_Hall]	2.26 ± 0.11 kcal/mol	2.71 ± 0.04 kcal/mol	2.61 ± 0.095 kcal/mol
SAGGSAGGSEKPPVKTITLVLKVDDAEEAAKALAEELGVEITRIEVTRDENGKVYVRITIRLPSAGGSAGGS [r12_359_TrROS_Hall]	3.6 ± 0.1 kcal/mol	3.99 ± 0.099 kcal/mol	3.9 ± 0.14 kcal/mol
SAGGSAGGSEKVEIEREFKLPDPNGKPFRFTVEIEVEPRNDGLKIEITEVEGPWMRDAIKKLLSAGGSAGGS [r12_743_TrROS]	0.696 ± 0.14 kcal/mol	0.922 ± 0.24 kcal/mol	0.907 ± 0.2 kcal/mol
SAGGSAGGSEKVIVVPSEEALKALEDAGIEVKKIEVFTETVTYYYPPGFPPVTETRTYLLVEVSAGGSAGGS [r12_78_TrROS_Hall]	1.45 ± 0.056 kcal/mol	2.26 ± 0.072 kcal/mol	1.96 ± 0.083 kcal/mol
SAGGSAGGSELEKALASAKPGEEVTVTVESTTPDGTPSVEIVEVKVEAETPSPGKENLEKNRLVSAGGSAGG [r6_893_JUSTAS]	-0.602 ± 0.23 kcal/mol	0.0837 ± 0.065 kcal/mol	-0.112 ± 0.44 kcal/mol
SAGGSAGGSELPEGVEVETEPIAEIEITDEDGRKYKISIEAVKIRGPDGKEFLVISVSIEELPSAGGSAGGS [r12_544_TrROS_Hall]	3.25 ± 0.56 kcal/mol	4.16 ± 0.34 kcal/mol	3.81 ± 0.62 kcal/mol
SAGGSAGGSELPVESIETETYEDPSTGVKTVREKYPGGYVVTKTLYVPPDGPPIELPVEVRPESAGGSAGGS [r12_111_JUSTAS]	-0.0484 ± 0.17 kcal/mol	0.63 ± 0.083 kcal/mol	0.425 ± 0.23 kcal/mol
SAGGSAGGSELSDEEIEALRKPPKVRIRVEIVYPDGTVEEREFSSLEEALAAAKERNVTVKILSAGGSAGGS [r12_244_TrROS_Hall]	2.86 ± 0.12 kcal/mol	1.76 ± 0.058 kcal/mol	2.28 ± 0.089 kcal/mol
SAGGSAGGSEMEVKVTVEPAPAGAPPGAVVRVEVEFEDGFRITVRFTFVDGKLRAEVTEIKPVSAGGSAGGS [r12_1049_TrROS_Hall]	2.92 ± 0.085 kcal/mol	3.65 ± 0.061 kcal/mol	3.37 ± 0.1 kcal/mol
